Experimental data taken from article PMC7214462.

Columns and labels:
[1] = tested on: LdCsm effector complex, wild type (Csm1/Cas10-Csm2-Csm3-Csm4-Csm5) (Lactobacillus delbrueckii subsp. bulgaricus ND04); assay: EMSA; settings: 5 nM 5'-32P S10-60 ssDNA in cleavage buffer (composition not in material; cOA assay buffer is 50 mM Tris-Cl pH 6.8 …)
[2] = tested on: LdCsm Csm3D34A (Lactobacillus delbrueckii subsp. bulgaricus ND04); assay: EMSA; settings: 100 nM effector, 500 nM PTR; 5 nM 5'-32P S10-60 ssDNA in cleavage buffer (composition not in material; cOA assay buffer is 50 mM Tris-Cl pH 6.8 …)

How did the binding signal (relative to WT with non-homologous RNA) ([1]; 100 nM LdCsm, 400 nM S10 RNA, little binding, reference) turn out when “ACTATAGGGAGAATAGAATGCCCCCATTATACAATATCTACGTTTTAGATGACCCCCCCC / ACGAGAACUUCAAAGCUUAGAUACCCUGGAGG / AUAGAAUGCCCCCAUUAUACAAUAUCUACGUUUUAGAUGAAAAAAA [S10-60 ssDNA + S1 crRNA + S10 RNA (non-homologous)]” was run?
Its binding signal (relative to WT with non-homologous RNA) is 1.

“ACTATAGGGAGAATAGAATGCCCCCATTATACAATATCTACGTTTTAGATGACCCCCCCC / ACGAGAACUUCAAAGCUUAGAUACCCUGGAGG / GGUGUUAAGUCUGGUUUCCCUCCAGGGUAUCUAAGCUUUGAAA [S10-60 ssDNA + S1 crRNA + CTR+1]” was tested. Which binding signal (% of full activity) ([1]; 100 nM LdCsm, 500 nM CTR+1) did it give?
The binding signal (% of full activity) was 90.

For “ACTATAGGGAGAATAGAATGCCCCCATTATACAATATCTACGTTTTAGATGACCCCCCCC / ACGAGAACUUCAAAGCUUAGAUACCCUGGAGG / GGUGUUAAGUCUGGUUUCCCUCCAGGGUAUCUAAGCUUUGAAAAAAAA [S10-60 ssDNA + S1 crRNA + CTR+6]”, which binding signal (fraction of CTR+6 complex) ([1]; 100 nM LdCsm, 500 nM CTR+6, reference) is on record?
Its binding signal (fraction of CTR+6 complex) is 1.

For “ACTATAGGGAGAATAGAATGCCCCCATTATACAATATCTACGTTTTAGATGACCCCCCCC / ACGAGAACUUCAAAGCUUAGAUACCCUGGAGG / GGUGUUAAGUCUGGUUUCCCUCCAGGGUAUCUAAGCUUUGAAG [S10-60 ssDNA + S1 crRNA + NTR+1]”, which binding signal (% of full activity) ([1]; 100 nM LdCsm, 500 nM NTR+1) is on record?
Its binding signal (% of full activity) is 70.

For “ACTATAGGGAGAATAGAATGCCCCCATTATACAATATCTACGTTTTAGATGACCCCCCCC / ACGAGAACUUCAAAGCUUAGAUACCCUGGAGG / UGUUAAGUCUGGUUUCCCUCCAGGGUAUCUAAGCUUUGAA [S10-60 ssDNA + S1 crRNA + PTR (S1-40)]”, which binding signal (fold vs non-homologous RNA) [2] is on record?
Its binding signal (fold vs non-homologous RNA) is 3.

And the binding signal (% of CTR-LdCsm) ([1]; 100 nM LdCsm, 500 nM PTR)?
The binding signal (% of CTR-LdCsm) was 55.

And the binding signal (fold vs non-homologous RNA) ([1]; 100 nM LdCsm, 500 nM PTR)?
The binding signal (fold vs non-homologous RNA) was 2.

Which binding signal ([1]; 25-100 nM effector, 500 nM CTR, reference) does the source give for “ACTATAGGGAGAATAGAATGCCCCCATTATACAATATCTACGTTTTAGATGACCCCCCCC / ACGAGAACUUCAAAGCUUAGAUACCCUGGAGG / UGUUAAGUCUGGUUUCCCUCCAGGGUAUCUAAGCUUUGAAAAAAAA [S10-60 ssDNA + S1 crRNA + CTR (S1-46)]” here?
The binding signal was 100 % of WT.
